B1: masking moiety PL12 (peptide)
peptide: VCYYMDWLGRNWCSS
B2: masking moiety PL10 (peptide)
peptide: PCHPHPYDARPYCNV
B3: masking moiety PL22 (peptide)
peptide: PCHPHPYDARPACNV
notes: differs from PL10 by one alanine
B4: masking moiety PL20 (peptide)
peptide: PCHPHPYAARPYCNV
notes: as for B3
B5: masking moiety PL24 (peptide)
peptide: PCHAHPYDARPYCNV
notes: as for B3
B6: masking moiety PL23 (peptide)
peptide: PCHPHPYDARPYCAV
notes: as for B3
B7: masking moiety PL18 (peptide)
peptide: PCHPHAYDARPYCNV
notes: as for B3
B8: masking moiety PL25 (peptide)
peptide: PCHPHPYDARAYCNV
notes: as for B3
B9: masking moiety PL21 (peptide)
peptide: PCHPHPYDAAPYCNV
notes: as for B3
B10: masking moiety PL17 (peptide)
peptide: PCHPAPYDARPYCNV
notes: as for B3
B11: masking moiety PL19 (peptide)
peptide: PCHPHPADARPYCNV
notes: as for B3
B12: masking moiety PL16 (peptide)
peptide: ACHPHPYDARPYCNV
notes: as for B3
B13: masking moiety PL08 (peptide)
peptide: DGPRCFVSGECSPIG
B14: masking moiety PL04 (peptide)
peptide: IACRHFMEQLPFCHH
B15: masking moiety PL07 (peptide)
peptide: GIALCPSHFCQLPQT
B16: masking moiety PL11 (peptide)
peptide: PCYWHPFFAYRYCNT
B17: masking moiety PL05 (peptide)
peptide: FGPRCGEASTCVPYE
B18: masking moiety PL06 (peptide)
peptide: ILYCDSWGAGCLTRP
B19: masking moiety PL09 (peptide)
peptide: LCYKLDYDDRSYCHI
B20: masking moiety PL01 (peptide)
peptide: YCEVSELFVLPWCMG
B21: masking moiety PL15 (peptide)
peptide: IFCHMGVVVPQCANY
B22: masking moiety PL02 (peptide)
peptide: SCLMHPHYAHDYCYV
B23: masking moiety PL03 (peptide)
peptide: LCEVLMLLQHPWCMG

Key:
[1] = target: Fab of anti-PDL1 antibody C5H9v2; assay: binding of Fab to peptide-displaying clones
[2] = target: T1, anti-PDL1 antibody C5H9v2; assay: binding of antibody to peptide-displaying clones
T1 construct: IgG; also called anti-PDL1 parental antibody C5H9v2

Row | Binder | binding result [1] | binding result [2]
1 | B1 | binds | binds
2 | B2 | binds | binds
3 | B3 | binds | binds
4 | B4 | binds | binds
5 | B5 | binds | binds
6 | B6 | binds | binds
7 | B7 | binds | binds
8 | B8 | binds | binds
9 | B9 | binds | binds
10 | B10 | binds | binds
11 | B11 | binds | binds
12 | B12 | binds | binds
13 | B13 | binds | binds
14 | B14 | binds | binds
15 | B15 | binds | binds
16 | B16 | binds | binds
17 | B17 | binds | binds
18 | B18 | binds | binds
19 | B19 | binds | binds
20 | B20 | binds | binds
21 | B21 | binds | binds
22 | B22 | binds | binds
23 | B23 | binds | binds

— patent publication US20190382493A1 (CYTOMX THERAPEUTICS, published 2019)
